Consider one substance from paper PMC4355727.

The target of this assay is FLAG-tagged Rab32 T39N (UniProt Q13637). Kind of assay: co-IP.
Sequence of UniProt Q13637 (Q13637 whole entry T39N): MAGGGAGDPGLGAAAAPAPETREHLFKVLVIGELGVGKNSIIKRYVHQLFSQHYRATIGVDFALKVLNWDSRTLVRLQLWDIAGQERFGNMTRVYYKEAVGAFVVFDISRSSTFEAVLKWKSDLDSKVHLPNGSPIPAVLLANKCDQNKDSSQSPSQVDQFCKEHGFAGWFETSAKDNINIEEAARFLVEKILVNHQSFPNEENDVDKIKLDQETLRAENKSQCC

As for HA-tagged Drp1 S656A (natural protein), the fraction of the interaction detected with active Rab32 Q85L came out at 0.25.
